# Laboratory results reported in US8394929B2, “Nogo receptor-mediated blockade of axonal growth” (Yale University, priority 2000, dated 2013).
# T1: NgRΔCT (Mus musculus, UniProt Q99PI8)
# T1 construct: encodes residues 26 to 305 and 443 to473 of mNgR; vector secretion signal (pSecTag2) (N); 6xHis (C); expressed in transfected cells; host or cells: COS-7
# T1 sequence (Q99PI8 with tags, fused parts or gaps): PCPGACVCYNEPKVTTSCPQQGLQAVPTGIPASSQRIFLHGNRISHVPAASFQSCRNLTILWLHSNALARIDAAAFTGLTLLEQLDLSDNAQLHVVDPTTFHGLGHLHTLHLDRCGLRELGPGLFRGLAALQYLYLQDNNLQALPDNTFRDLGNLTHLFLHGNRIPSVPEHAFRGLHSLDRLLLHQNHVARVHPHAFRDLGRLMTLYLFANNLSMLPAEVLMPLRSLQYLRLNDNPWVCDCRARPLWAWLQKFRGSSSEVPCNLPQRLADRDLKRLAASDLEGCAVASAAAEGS
# T2: wild-type NgR (wtNgR) (Mus musculus, UniProt Q99PI8)
# T2 construct: expressed in transfected cells; host or cells: chick E7 retinal ganglion cell explants infected with recombinant HSV
# T2 sequence (Q99PI8 27-447): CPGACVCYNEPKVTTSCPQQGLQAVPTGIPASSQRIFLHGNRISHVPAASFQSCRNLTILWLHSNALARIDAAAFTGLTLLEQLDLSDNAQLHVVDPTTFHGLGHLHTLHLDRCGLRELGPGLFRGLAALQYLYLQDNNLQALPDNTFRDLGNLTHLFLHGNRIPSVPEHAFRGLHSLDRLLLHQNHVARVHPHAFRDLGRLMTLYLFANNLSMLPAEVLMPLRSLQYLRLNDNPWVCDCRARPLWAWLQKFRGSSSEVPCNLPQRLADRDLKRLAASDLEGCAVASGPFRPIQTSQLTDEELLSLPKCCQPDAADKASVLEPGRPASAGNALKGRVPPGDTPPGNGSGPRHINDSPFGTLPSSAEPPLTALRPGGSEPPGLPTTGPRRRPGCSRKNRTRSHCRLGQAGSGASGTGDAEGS
# B1: AP-Nogo: fusion protein of His6 tag, placental alkaline phosphatase (AP) and the 66 amino acid active domain of Nogo (protein)
# chain: HHHHHHIIPVEEENPDFWNREAAEALGAAKKLQPAQTAAKNLIIFLGDGMGVSTVTAARILKGQKKDKLGPEIPLAMDRFPYVALSKTYNVDKHVPDSGATATAYLCGVKGNFQTIGLSAAARFNQCNTTRGNEVISVMNRAKKAGKSVGVVTTTRVQHASPAGTYAHTVNRNWYSDADVPASARQEGCQDIATQLISNMDIDVILGGGRKYMFRMGTPDPEYPDDYSQGGTRLDGKNLVQEWLAKRQGARYVWNRTELMQASLDPSVTHLMGLFEPGDMKYEIHRDSTLDPSLMEMTEAALRLLSRNPRGFFLFVEGGRIDHGHHESRAYRALTETIMFDDAIERAGQLTSEEDTLSLVTADHSHVFSFGGYPLRGSSIFGLAPGKARDRKAYTVLLYGNGPGYVLKDGARPDVTESESGSPEYRQQSAVPLDEETHAGEDVAVFARGPQAHLVHGVQEQTFIAHVMAFAACLEPYTACDLAPPAGTTDAAHPGRIYKGVIQAIQKSDEGHPFRAYLESEVAISEELVQKYSNSALGHVNCTIKELRRLFLVDDLVDSLK
# B2: GST-Nogo: GST fusion protein of the 66 amino acid lumenal-extracellular fragment of Nogo-A, expressed in E. coli (protein)
# chain: RIYKGVIQAIQKSDEGHPFRAYLESEVAISEELVQKYSNSALGHVNCTIKELRRLFLVDDLVDSLK
# modifications: also: GST fusion protein
# notes: GST fusion protein of the 66 amino acid lumenal-extracellular fragment of Nogo-A, expressed in E. coli
# Key:
# [1] = test system: CNS myelin induced growth cone collapse; assay: Blockade of CNS myelin induced growth cone collapse in chick DRG cultures; assay type: cell-based
# Method: In the growth cone collapse assay, the response to Nogo was measured in the presence of various potential antagonistic peptides. […] This blockade supports the hypothesis that Nogo is a primary inhibitory component of CNS myelin.
# To determine the antagonistic activity of Peptide 140 against CNS myelin, the above synthetic peptide was added approximately 10 min before application of CNS myelin. 30 min later, cultures were fixed and growth cone collapse was assessed following staining with rhodamine-phalloidin. For neurite outgrowth assays, plastic chamber slide were coated with 100 μg ml^−1 poly-L-lysine, washed, and dried. 3 μl drops of PBS containing CNS myelin were spotted and dried. Slides were then rinsed and coated with 10 μg ml fs24^−1 laminin before addition of dissociated E12 chick DRGs. Peptide 140, or the scrambled version of Peptide 140, was added at the time of cell plating. Cultures were grown for 5-7 h after which neurite outgrowth was assessed.
# NgRΔCT = target: T1, NgRΔCT; assay: AP-hNogo-A (1055-1120) binding to COS-7 cells transfected with NgRΔCT
# Excerpt: The NgRΔCT contruct encodes residues 26 to 305 and 443 to473 of mNgR, thereby including the LRR and GPI regions of mNgR. Primers MycNgR ([…]) and 2NgRt313 ([…]) were used to amplify a sequence from the wtNgR-pSecTag2Hygro plasmid. Primers TM/GPI5 (5′-[…]-3′) and NgR3X (above) were used to amplify a sequence from the wtNgR-pSecTag2Hygro plasmid. The amplified sequences were ligated together at the NotI site and then ligated into the BamHI/XhoI sites of pSecTag2.
# To determine whether mNgR or mNgR deletion mutants bound to hNogo-A (1055-1120), wtNgR or mNgR deletion mutants were transfected into COS-7 cells. Forty-eight hours after the transfection, the transfected COS-7 cells were washed with hanks balanced salt solution containing 20 mM sodium HEPES, pH 7.05, and 1 mg/ml bovine serum albumin (BSA) [hereinafter “HBH”]. Cells were then incubated for 2 hours at 23° C. with a conditioned medium enriched with purified AP-hNogo-A (1055-1120) diluted in HBH. AP-fusion protein was detected as previously described for AP-Sema3A (Takahashi et al., Nature Neurosci. 1:487-493, 1998).
# wild-type NgR (wtNgR) = target: T2, wild-type NgR (wtNgR); assay: Growth cone collapse in E7 retinal ganglion cells infected with HSV wild-type NgR; assay type: cell-based
# Method: (§1) Both dorsal root ganglion and retinal neurons from E7 chick embryos were examined. The Nogo responses in the dorsal root ganglion neurons from this developmental stage are weak but slight responses can be detected in some cultures (data not shown).
# Because the mouse NgRCT domain was determined to be dispensable for hNogo-A (1055-1120) binding, the ability of NgRΔCT to mediate Nogo-dependent inhibition was examined. HSVNgR constructs transfected into HEK293T cells mediated the expression of mNgR proteins of the predicted molecular weight, as determined by SDS-PAGE and anti-Myc and anti-NgR immunoblotting (FIG. 19A). Day E7 chick retinal ganglion cells (RGCs) were grown for 12 hr, then further incubated for 24 hr with HSVNgR preparations. Explants were fixed with 4% paraformaldehyde with 0.1 M PO4 and 20% sucrose and stained with phalloidin or with anti-myc antibodies. HSVNgR protein expression was detected in axons of infected (RGC) cultures (FIG. 19B).
# Growth cone collapse in response to GST-hNogo-A (1055-1120) was investigated in infected RGC cultures. Retinal explants infected with recombinant viral preparations of PlexinA1 (PlexA1), wild-type NgR (wtNgR), NgRL1 chimeric receptor in which the GPI domain has been replaced by the transmembrane region and cytoplasmic tail from the mouse adhesion protein L1 (NgRL1), or NgR carboxy terminal deletion mutant (NgRΔCT) for 12 hr. […]
# PlexinA1 (PlexA1) = assay: Growth cone collapse in E7 retinal ganglion cells infected with control HSV PlexinA1; assay type: cell-based
# Excerpt: as §1
# Growth cone collapse in response to GST-hNogo-A (1055-1120) was investigated in infected RGC cultures. Retinal explants infected with recombinant viral preparations of PlexinA1 (PlexA1), wild-type NgR (wtNgR), NgRL1 chimeric receptor in which the GPI domain has been replaced by the transmembrane region and cytoplasmic tail from the mouse adhesion protein L1 (NgRL1), or NgR carboxy terminal deletion mutant (NgRΔCT) for 12 hr. Following infection, the cells were treated for 30 min with 0, 50, 250, or 500 nM GST-hNogo-A (1055-1120) (GrandPre et al., Nature 403: 439-444, 2000), fixed with 4% paraformaldehyde with 0.1 M PO4 and 20% sucrose, and stained with phalloidin. […] Cells infected with NgRΔCT were insensitive to GST-hNogo-A (1055-1120). The CT region of NgR is therefore required for effective NgR inhibitory signaling.
# [2] = listed as GST-hNogo-A (1055-1120)
molecule,measurement,setting,value
"Peptide 140: synthetic peptide of amino acids #1055-1094 of the human NogoA protein, acetylated and amidated at the termini (Ac-RIYKGVIQAIQKSDEGHPFRAYLESEVAISEELVQKYSNS-NH2; UniProt Q9NQC3 1055-1094, looked up, fragment)",blockade of CNS myelin induced growth cone collapse (in words),[1]; high doses / higher concentrations of CNS myelin,had no effect on inhibitory activity
same,blockade of CNS myelin induced growth cone collapse (in words),[1]; low dose / lowest concentrations of CNS myelin,reduces myelin induced growth cone collapse to control levels
B1,binding (in words),NgRΔCT,bound
B2,growth cone collapse response (in words),wild-type NgR (wtNgR); [2],underwent growth cone collapse
same,growth cone collapse response (in words),wild-type NgR (wtNgR); listed as Nogo-66,sensitive to Nogo-66-induced collapse
same,growth cone collapse response (in words),PlexinA1 (PlexA1); [2],did not respond
same,growth cone collapse response (in words),PlexinA1 (PlexA1); listed as Nogo-66,does not alter Nogo responses
